Measurements from PMC11645250.
Where two headings read alike, the source gives them in different places.

What was measured:
[1] = target: IBDV VP3 D1–D2–D3 construct (residues 1–221) (infectious bursal disease virus (IBDV)); assay: cross-linking
[2] = target: IBDV VP3 D1–D2–D3 construct (residues 1–221) (infectious bursal disease virus (IBDV)); assay: SEC-MALS
[3] = target: IBDV VP3 D1–D2–D3 construct (residues 1–221) (infectious bursal disease virus (IBDV)); assay: cross-linking; remark: listed apart in the source
[4] = target: IBDV VP3 D1–D2–D3 construct (residues 1–221) (infectious bursal disease virus (IBDV)); assay: SAXS
[5] = target: IBDV VP3 N-terminal construct (residues 1–81, D1 domain) (infectious bursal disease virus (IBDV)); assay: cross-linking
[6] = target: IBDV VP3 N-terminal construct (residues 1–81, D1 domain) (infectious bursal disease virus (IBDV)); assay: SEC-MALS
[7] = target: IBDV VP3 N-terminal construct (residues 1–81, D1 domain) (infectious bursal disease virus (IBDV)); assay: SAXS
[8] = target: IBDV VP3 central domains construct (residues 89–221, D2–D3) (infectious bursal disease virus (IBDV)); assay: cross-linking
VP3 1-81 (D1) = target: T1, VP3 1-81 (D1) (Infectious bursal disease virus (Soroa …, UniProt Q9WI42 756-836)); assay: EMSA
T1 sequence: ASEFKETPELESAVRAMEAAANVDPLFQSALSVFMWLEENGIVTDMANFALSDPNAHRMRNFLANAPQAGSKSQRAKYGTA

Molecule: IBDV VP3 D1–D2–D3 construct (residues 1–221) (domain or fragment)
- % of protein in dimers and higher MW species after BS3 cross-linking [1]: 93.2%
- % of total sample in the predominant (dimer) peak [2]: 98.8%
- stoichiometry N [2]: 2
- % of protein in dimers and higher MW species after BS3 cross-linking [3]: 93.3%
- stoichiometry N [4]: 2

Molecule: IBDV VP3 N-terminal construct (residues 1–81, D1 domain) (domain or fragment)
- % of the band in the dimeric form after BS3 cross-linking [5]: 96.9%
- stoichiometry N [6]: 2
- stoichiometry N [7]: 2

Molecule: IBDV VP3 central domains construct (residues 89–221, D2–D3) (domain or fragment)
- % dimerization/oligomerization after BS3 cross-linking [8]: 43.5%

B1: 28 bp dsRNA (dsRNA)
RNA 1: AGAACCUGUUGAACAAAAGCCGAAUAAU
RNA 2: AUUAUUCGGCUUUUGUUCAACAGGUUCU
- binding result (VP3 1-81 (D1)): no binding
